Laboratory results published in PMC10591298.

target: Lys119 (UniProt position 119, IPVLRKDFVVQ); experiment: kinetics; conditions: 25 °C; 100 mM NaCl in MTEN buffer (said to have minimal change in ionic strength with pH); Steady-state turnover with CdRP (60 µM) above KM; enzyme 0.25-60 µM depending on variant

First: Indole-3-glycerol phosphate synthase (MtIGPS), wild type (Mycobacterium tuberculosis)
Second: MtIGPS Glu57Asp (Mycobacterium tuberculosis; E57D)
The pKa of the first is higher: 9.0 ± 0.1 for the first, 7.7 ± 0.1 for the second.

Compared with “MtIGPS Glu219Asn (Mycobacterium tuberculosis; E219N)”, “MtIGPS Glu219Asp (Mycobacterium tuberculosis; E219D)” is lower in pKa: 10.0 ± 0.2 for the first, 7.6 ± 0.2 for the second.

In the case of “MtIGPS Glu219Gln (Mycobacterium tuberculosis; E219Q)”, the pKa is reported as 9.9 ± 0.1.
